Results as given in patent US20110286916A1 (published 2011).

Tests used:
[1] = molecular target: T1, human full-length Notch3 with C-terminal FLAG tag, stably expressed on 293 FlpIn (TREx) cells (human, UniProt Q9UM47 40-2321); experiment: FACS, phage scFv
T1 construct: whole, on cells; made by the same strategy as the Notch1 line; also called 293-N3; hN3

[2] = molecular target: T2, human full-length Notch1 with C-terminal FLAG tag, stably expressed on 293 FlpIn (TREx) cells (human, UniProt P46531 19-2555); experiment: FACS, phage scFv
T2 construct: tetracycline/doxycycline-induced expression from pcDNA5/FRT/TO-HN1+FLAG; also called hN1; 293_N1

Binder | binding result [1] | binding result [2]
N1wc15 (scFv, V domains shown, phage scFv) VH: QVQLQQSGAEVKKPGASVKVSCKASGYNFTGYYMHWVRQAPGQGLEWMGWINPNSGGTNYAQKFQGRVTMTRDTSISTAYMELSRLRSDDTAVYYCATDSFDYWGQGTMVTVSS VL: not shown | binds | binds
N1wc72 (scFv, V domains shown, phage scFv) VH: EVQLVQSGAEVKKPGASVKVSCKASGYNFTGYYMHWVRQAPGQGLEWMGWINPNSGGTNYAQKFQGRVTMTRDTSISTAYMELSRLRSDDTAVYYCATDSFDYWGKGTMVTVSS VL: QPVLTQPPSASGTPGQRVTISCSGSYSNIGSNYVYWYQQFPGTAPKLLIYTNNQRPSGVPDRFSGSKSGSSASLAISGLRSEDEADYYCAAWDDSVGVLLFGGGTKVTVL | binds | –
N1wc131 (scFv, V domains shown, phage scFv) VH: EVQLVQSGAEAKKPGASVKVSCKASGYNFTGYYMHWVRQAPGQGLEWMGWINPNSGGTNYAQKFQGRVTMTRDTSISTAYMELSRLRSDDTAVYYCATDSFDYWGQGTLVTVSS VL: SYELTQPPSASGTPGQRVTISCSGTSSNIGINYVYWYQQLPRTAPKLLIYYNNQRPSGVPDRFSGSRSGTSASLAISGLRSEDEADYYCAAWDDSLSGLVFGTGTKLTVL | binds | –
N1wc476 (scFv, V domains shown, phage scFv) VH: EVQLVQSGAEVKKPGASVKVSCKASGYNFTGYYMHWVRQAPGQGLEWMGWINPNSGGTNYAQKFQGRVTMTRDTSISTAYMELSRLRSDDTAVYYCATDSFDYWGQGTLVTVSS VL: QAVLTQPSSVSGTPGQTVTISCSGSNSNIGNNYVYWYQQLPGSAPKVVIYRNHQRPSGVPDRFSGSKSGTAASLAISGLRSEDEADYYCASWDDSLSGLVFGGGTKLTVL | binds | –
N1wc248 (scFv, V domains shown, phage scFv) VH: EVQLVQSGAEVKKPGASVKVSCKASGYNFTGYYMHWVRQAPGQGLEWMGWINPNSGGTNYAQKFQGRVTMTRDTSISTAYMELSRLRSDDSAVYYCATDSFDYWGRGTLVTVSS VL: QSVLTQPPSASGTPGQRVTISCSGSSSNIGSNSVYWYQQFPGTAPKLLIYRNNQRPSGVPDRFSGSKSDTSASLAISGLRSEDEADYYCATWDDSLSGVVFGGGTKLTVL | binds | binds
hN1S3-055 (scFv, V domains shown, phage scFv) VH: QVQLVQSGAEVKKPGASVKVSCKASGYNFTGYYMHWVRQAPGQGPEWMGWINPNSGGTNYAQKFQGRVTMTRDTSISTAYMELSRLRSDDTAVYYCATDSFDYWGRGTMVTVSS VL: not shown | binds | binds
N1wc403 (scFv, V domains shown, phage scFv) VH: EVQLVQSGAEVKKPGASVKVSCKASGYNFTGYYMHWVRQAPGQGLEWMGWINPNSGGTNYAQKFQGRVTMTRDTSISTAYMELSRLRSDDTAVYYCATDSFDYWGRGTLVTVSS VL: not shown | binds | binds
N1wc516 (scFv, V domains shown, phage scFv) VH: EVQLVESGAEVKKPGASVKVSCKASGYNFTGYYMHWVRQAPGQGLEWMGWINPNSGGTNYAQKFQGRVIMTRDTSISTAYMELSRLTSDDTAVYYCATDSFDYWGRGTLVTVSS VL: not shown | binds | binds
hN1S3-091 (scFv, V domains shown, phage scFv) VH: EVQLVQSGAEVKKPGASVKVSCKASGYNFTGYYMHWVRQAPGQGLEWMGWINPNSGGTNYAQKFQGRVTMTRDTSISTAYMELSRLRSDDTAVYYCATDSFDYWGQGTMVTVSS VL: QSVLTQPPSATGTPGQTVSISCSGGNSNIGSNYVSWYQQLPGTAPKLLIYSNNQRPSGVPDRFSGSKSGTSASLAISGLQSEDEADYYCAAWDDSLNGHIFGTGTKLTVL | binds | binds
N1wc135 (scFv, V domains shown, phage scFv) VH: not shown VL: LPVLTQPPSASGTPGQRVIISCSGSSSNIGSNYVYWYQQLPGTAPKLLIYRNNQRPSGVPDRFSGSKSGTSASLAISGLRSEDEADYHCAAWDDSLSGVVFGGGTKLTVL | binds | binds
hN1S3-036 (scFv, V domains shown, phage scFv) VH: EVQLVQSGAEVKKPGASVKVSCKASGYNFTGYYMHWVRQAPGQGLEWMGWINPNSGGTNYAQKFQGRVTMTRDTSISTAYMELSRLRSDDTAVYYCATDSFDYWGRGTMVTVSS VL: not shown | binds | binds
N1wc572 (scFv, V domains shown, phage scFv) VH: not shown VL: LPVLTQPPSASGTPGQRVTISCSGSSSNIGSNPVNWYQQLPGSAPKLLVYSDDQRPSGVPDRFSGSKSGASASLAISGLQSEDESDYYCAAWDDSLNAVVFGGGTKVTVL | binds | binds
N1wc624 (scFv, V domains shown, phage scFv) VH: QVQLQQSGAEVKKPGASVKVSCKASGYNFTGYYMHWVRQAPGQGLEWMGWINPNSGGTNYAQKFQGRVTMTRDTSISTAYMELSRLGSDDTAVYYCATDSFDYWGRGTLVTVSS VL: not shown | binds | binds
N1wc540 (scFv, V domains shown, phage scFv) VH: EVQLVQSGAEVKKPGASVKVSCKASGYNFTGYYMHWVRQAPGQGLEWMGWINPNSGGTNYAQKFQGRVTMTRDTSISTAYMELSRLRSDDTAVYYCATDSFDYWGQGTMVTVSS VL: QAVLTQPSSASGTPGQRVTISCSGSSSNIGSYTVNWYQQVPGTAPKLLIYSNNQRPSGVPERFSGSKSGTSASLAISGLQSEDEADYYCAAWDDSLSDVLFGGGTKLTVL | binds | binds
hN1S3-038 (scFv, V domains shown, phage scFv) VH: EVQLVQSGAEVKKPGASVKVSCKASGYNFTGYYMHWVRQAPGQGLEWMGWINPNSGGTNYAQKFQGRVIMTRDTSISTAYMELSRLTSDDTAVYYCATDSFDYWGRGTTVTVSR VL: not shown | binds | binds
hN1S3-001 (scFv, V domains shown, phage scFv) VH: EVQLVQSGAEVKKPGASVKVSCKASGYNFTGYYMHWVRQAPGQGLEWMGWINPNSGGTNYAQKFQGRVTMTRDTSISTAYMELSRLRSDDTAVYYCATDSFDYWGQGTMVTVSS VL: not shown | binds | binds
N1wc633 (scFv, V domains shown, phage scFv) VH: QVQLQQSGAEVKKPGASVKVSCKASGYNFTGYYMHWVRQAPGQGLEWMGWINPNSGGTNYAQKFQGRVTMTRDTSISTAYMELSRLRSDDTAVYYCATDSFDYWGRGTLVTVSS VL: QAVLTQPSSASGTPGQRVTISCSGSSSNIGSYTVNWYQQVPGTAPKLLIYSNNQRPSGVPERFSGSKSGTSASLAISGLQSEDEADYYCAAWDDSLSDVLFGGGTKVTVL | binds | binds
N1wc102 (scFv, V domains shown, phage scFv) VH: QVQLVQSGAEVKKPGAPVKVSCKASGYNFTGYYMHWVRQAPGQGLEWMGWINPNSGGTNYAQKFQGRVAMTRDTSISTAYMELSRLRSDDTAVYYCATDSFDYWGQGTMVTVSS VL: not shown | binds | binds
hN1S3-023 (scFv, V domains shown, phage scFv) VH: EVQLVQSGAEVKKPGASVKVSCKASGYNFTGYYMHWVRQAPGQGLEWMGWINPNSGGTNYAQKFQGRVTMTRDTSISTAYMELSRLRSDDTAVYYCATDSFDYWGQGTMVTVSS VL: not shown | binds | binds
